Laboratory results from paper PMC9561381 (Nucleic Acids Research, 2022).

Target: the molecule itself
Assay: SEC-MALS

B1: DCP2_(C-tail), untagged (domain or fragment, human, UniProt Q8IU60 249-353, looked up)
chain: SDNGFSSTGSTPAKPTVEKLSRTKFRHSQQLFPDGSPGDQWVKHRQPLQQKPYNNHSEMSDLLKGKNQSMRGNGRKQYQDSPNQKKRTNGLQPAKQQNSLMKCEK
- binding result: binds
